# Assay results: patent publication US12344663B2, “Anti-C3 antibodies and antigen-binding fragments thereof and their uses for treating eye or ocular diseases” (CDR-Life AG, priority 2021, dated 2025)
# B1: Clone I: humanized anti-C3 scFv, VH SEQ ID NO: 20, VL SEQ ID NO: 21; scFv SEQ ID NO: 26 or 27 (antibody, V domains shown)
# VH: QVQLVESGGGSVQPGRSLRLSCAASGFTFSNYAMNWVRQAPGKGLEWVAVISYDGSNKYYADSVKGRFTISRDNSKNTLYLQMNSLRAEDTASYYCARAVGYHHARLDPWGCGTSVTVSS
# VL: QLVLTQSPSASASLGASVKLTCTLSSAHKTYTIDWYQQQPEKCPRYLMQLKSDGSYTKGSGIPDRFSGSSSGAERYLTISSLQSEDEADYYCGTEGVGGYVFGGGTKLTVLG
# modifications: VH; VL
# B2: Clone II: humanized anti-C3 scFv, VH SEQ ID NO: 22, VL SEQ ID NO: 23; scFv SEQ ID NO: 28 or 29 (antibody, V domains shown)
# VH: QVQLVESGGGSVQPGRSLRLSCAASGFTFSNYAMNWVRQAPGKGLEWVAIINVGGGTNYADSVKGRFTISRDNSKNTLYLQMNSLRAEDTASYYCARAVGYHHARLDPWGCGTSVTVSS
# VL: B1 VL
# modifications: VH; VL
# Key:
# [1] = Viscosity at high concentrations, cone-plate-rheometer; type: physicochemical; details: 20° C., shear-rate 1000 s^−1; for Viscosity [mPa * s] Fully formulated at 150 g/L: 10 mM His pH 5.5, 275 mM sucrose, 0.02% w/v Polysorbate20; for Viscosity [mPa * s] Minimal buffer at 185 g/L: 10 mM His pH 5.5
# Protocol: Viscosity measurements are performed with the samples prepared for the storage stability study. In addition to the fully formulated samples (10 mM His pH 5.5, 275 mM sucrose, 0.02% w/v Polysorbate20), viscosity of each candidate is also measured in a minimal formulation (10 mM histidine pH 5.5). This is performed to evaluate the drug substance processability (e.g., filtration, pumping, diafiltration, etc.) of the candidates up to 125% of the final drug product concentration of 150 mg/ml.
# Viscosity is measured at 20° C. at a shear-rate of 1000 s^−1 using a cone-plate-rheometer. Briefly, a stepwise increase of the shear rate up to 1,000 s^−1 is done collecting 100 data points, followed by a further increase of the shear rate up to 2000 s^−1, collecting another 10 data points. Finally, a stepwise decrease of the shear rate down to starting rate is done. Good drug product handling properties for filling and syringeability have been observed for all candidates
# human C3 P314L = biological target: T1, human C3 P314L (Homo sapiens, UniProt P01024, P314L); test: SPR (Biacore T100) binding to C3 SNP1 P314L; details: for Kd: Table 20, SPR; for kd C3 SNP1 P314L: off-rate; for ka C3 SNP1 P314L: on-rate
# T1 construct: 6×His (N); made in house; host or cells: CHO (ExpiFectamine CHO Expression Kit)
# Protocol: (§1) The kinetic parameters of the candidates are determined using a surface plasmon resonance (SPR) and Biacore T100 device. C3 and different variants thereof (Table 19) are immobilized as a ligand on a HC30M SPR sensor chip (XanTec bionanalytics, Germany) using EDC/[…] linking chemistry. Five increasing concentrations of each molecule (analyte) are consecutively injected using the single cycle kinetics (SCK) mode to determine the kinetic parameters. Regeneration between the candidates is done with 10 mM glycine*HCl, 2 M NaCl, pH 3.5. The data is fitted to a 1:1 Langmuir binding model and the kinetic parameters of on-rate (ka), off-rate (kd), and affinity […] were determined.
# Single nucleotide polymorphism (SNP) in C3 has been observed across the population and certain SNPs were identified in genome-wide association studies (GWAS) to correlate with an increased risk to develop AMD. […] Very rare variants, which occur in less that 2.5% of the population include K155Q, R735W, S1619W, K65Q and R161W.
# (§2) Proteins are expressed with N-terminal 6×His tag and purified using a HisTrap Excel HP column (GE Healthcare), followed by a size-exclusion chromatography step (SUPERDEX®20010/300GL; GE Healthcare).
# human C3 R102G = biological target: T2, human C3 R102G (Homo sapiens, UniProt P01024, R102G); test: SPR (Biacore T100) binding to C3 SNP2 R102G; details: for Kd: Table 20, SPR; for kd C3 SNP2 R102G: off-rate; for ka C3 SNP2 R102G: on-rate
# T2 construct: 6×His (N); made in house; host or cells: CHO (ExpiFectamine CHO Expression Kit)
# Protocol: as §1
# Single nucleotide polymorphism (SNP) in C3 has been observed across the population and certain SNPs were identified in genome-wide association studies (GWAS) to correlate with an increased risk to develop AMD. Common SNP variants include P314L, which occurs in approximately 23.3% of population, and R102G, which has been reported to occur in approximately 26-29% of population. Very rare variants, which occur in less that 2.5% of the population include K155Q, R735W, S1619W, K65Q and R161W.
# The inventors therefore measured the binding affinity of the scFv of the invention to the most commonly occurring C3 forms, i.e., R102G and P314L. Wild-type human C3, human C3 P314L and human C3 R102G are expressed in the CHO cell line using the ExpiFectamine CHO Expression Kit (Thermo Fisher Scientific). Proteins are expressed with N-terminal 6×His tag and purified using a HisTrap Excel HP column (GE Healthcare), followed by a size-exclusion chromatography step (SUPERDEX®20010/300GL; GE Healthcare).
# cyno C3 = test: SPR (Biacore T100) binding to cyno C3; design: species or system cynomolgus (Macaca fascicularis); details: for Kd: Table 20, SPR; for kd cyno C3: off-rate; for ka cyno C3: on-rate
# Protocol: as §1
# [2] = Storage stability at 150 mg/ml, oligomerization by SE-HPLC; type: physicochemical; details: decrease in monomeric content versus start
# Protocol: Clone I, clone II and clone III are tested for storage stability. Samples are concentrated to 150 mg/ml (Vivaspin20 centrifugal device, 5 kDa MWCO at 3800×g) and stored at 25° C. and 40° C. for up to 4 weeks. Samples are analyzed for oligomerization (SE-HPLC) and chemical degradation (IEX-HPLC). The starting monomeric purity as determined by SE-HPLC was 99.96% for each clone. The starting charge purity, as determined by IEX-HPLC was 98.07%, 97.16% and 96.76%, respectively for clone I, II and III.
# Classical Pathway (CP) = test: Hemolytic assay, antibody-sensitized sheep erythrocytes in human serum; type: cell-based; details: 1% human serum, read-out: IC50 (nM) Classical Pathway Hemolysis
# Protocol: Anti-C3 antibody fragments are evaluated for their ability to inhibit hemolysis of antibody-sensitized sheep erythrocytes mediated by Classical Pathway (CP) or Alternative Pathway (AP) activation in human serum. For this, sheep erythrocytes are coated with hemolysin (rabbit anti-sheep antibodies) on the surface to activate the complement system in human serum resulting in C3 activation and subsequent formation of the Membrane Attack Complex (MAC). The MAC assembles on the membrane of sheep erythrocytes leading to cell lysis. The level of hemoglobin released from lysed erythrocytes is measured at OD 414 nm and is proportional to the complement activity present in the serum sample. For determining the ability of anti-C3 molecules to inhibit CP activity, human serum was diluted in GVB++ buffer (Complement technology) for optimal activation of the Classical Pathway (requires calcium and magnesium ions). Serial dilutions of anti-C3 test samples are prepared from this solution with a final concentration of 1% human serum for each datapoint (prior to addition to erythrocytes). The samples are incubated with antibody-sensitized sheep erythrocytes for 1 hour at 37° C. and released hemoglobin is measured in the supernatant after a centrifugation step.
# [3] = biological target: T3, recombinant C3 (wild-type human C3) (Homo sapiens, UniProt P01024); test: SPR (Biacore T100) binding to recombinant C3; details: for Kd: Table 20, SPR; for kd recombinant C3: off-rate; for ka recombinant C3: on-rate
# T3 construct: 6×His (N); made in house; host or cells: CHO (ExpiFectamine CHO Expression Kit)
# Protocol: as §1, §2
# T2 sequence (P01024 23-1663 R102G): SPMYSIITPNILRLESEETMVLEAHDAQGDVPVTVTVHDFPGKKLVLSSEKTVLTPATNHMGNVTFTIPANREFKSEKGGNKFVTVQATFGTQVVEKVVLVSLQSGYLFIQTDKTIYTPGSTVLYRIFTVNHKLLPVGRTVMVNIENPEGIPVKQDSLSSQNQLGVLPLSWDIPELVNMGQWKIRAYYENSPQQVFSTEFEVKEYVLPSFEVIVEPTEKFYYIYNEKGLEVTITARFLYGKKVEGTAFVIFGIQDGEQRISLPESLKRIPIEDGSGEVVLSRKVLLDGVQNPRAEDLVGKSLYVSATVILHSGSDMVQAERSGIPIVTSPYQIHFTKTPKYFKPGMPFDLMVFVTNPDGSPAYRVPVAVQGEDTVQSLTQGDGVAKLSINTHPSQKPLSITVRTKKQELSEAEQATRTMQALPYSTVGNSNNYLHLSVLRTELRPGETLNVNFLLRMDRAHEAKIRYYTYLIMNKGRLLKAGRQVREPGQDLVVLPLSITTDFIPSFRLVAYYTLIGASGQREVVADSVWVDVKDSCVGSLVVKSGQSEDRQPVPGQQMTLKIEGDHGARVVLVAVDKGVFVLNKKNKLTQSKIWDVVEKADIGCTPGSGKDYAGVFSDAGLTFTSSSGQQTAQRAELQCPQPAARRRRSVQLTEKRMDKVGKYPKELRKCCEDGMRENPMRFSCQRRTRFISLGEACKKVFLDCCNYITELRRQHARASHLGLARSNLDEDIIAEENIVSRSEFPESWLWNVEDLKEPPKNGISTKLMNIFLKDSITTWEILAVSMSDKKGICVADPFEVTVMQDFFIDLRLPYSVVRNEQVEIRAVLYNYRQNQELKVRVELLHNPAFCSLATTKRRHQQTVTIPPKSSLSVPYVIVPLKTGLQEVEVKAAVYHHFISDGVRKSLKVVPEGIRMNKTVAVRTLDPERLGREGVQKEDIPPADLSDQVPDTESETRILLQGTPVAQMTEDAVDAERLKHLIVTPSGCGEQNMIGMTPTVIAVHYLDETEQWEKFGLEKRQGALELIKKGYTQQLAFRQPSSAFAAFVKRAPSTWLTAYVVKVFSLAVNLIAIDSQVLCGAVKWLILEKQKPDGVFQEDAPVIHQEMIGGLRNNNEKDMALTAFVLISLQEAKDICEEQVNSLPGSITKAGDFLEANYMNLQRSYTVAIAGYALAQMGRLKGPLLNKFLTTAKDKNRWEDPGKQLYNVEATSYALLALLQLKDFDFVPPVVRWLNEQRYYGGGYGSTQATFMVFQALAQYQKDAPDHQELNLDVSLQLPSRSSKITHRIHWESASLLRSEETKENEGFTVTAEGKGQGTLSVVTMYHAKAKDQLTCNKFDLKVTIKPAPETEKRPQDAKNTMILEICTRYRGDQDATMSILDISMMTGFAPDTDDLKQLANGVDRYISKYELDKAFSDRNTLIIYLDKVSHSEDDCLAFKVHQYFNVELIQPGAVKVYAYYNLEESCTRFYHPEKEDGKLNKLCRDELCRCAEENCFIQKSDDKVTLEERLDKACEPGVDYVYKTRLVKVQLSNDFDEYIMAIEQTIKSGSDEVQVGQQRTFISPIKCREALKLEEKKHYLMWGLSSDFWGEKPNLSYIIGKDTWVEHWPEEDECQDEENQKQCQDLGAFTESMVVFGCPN
# T1 sequence (P01024 23-1663 P314L): as the sequence (P01024 23-1663 R102G) above, with G80R, P292L counted along it
# T3 sequence (P01024 23-1663): as the sequence (P01024 23-1663 R102G) above, with G80R counted along it
Molecule,Viscosity [mPa * s] Fully formulated at 150 g/L [1] [mPa * s],Viscosity [mPa * s] Minimal buffer at 185 g/L [1] [mPa * s],Kd (human C3 P314L) [nM],kd C3 SNP1 P314L (human C3 P314L) [s⁻¹],ka C3 SNP1 P314L (human C3 P314L) [M⁻¹ s⁻¹],Kd (human C3 R102G) [nM],kd C3 SNP2 R102G (human C3 R102G) [s⁻¹],ka C3 SNP2 R102G (human C3 R102G) [M⁻¹ s⁻¹],Kd (cyno C3) [nM],kd cyno C3 (cyno C3) [s⁻¹],ka cyno C3 (cyno C3) [M⁻¹ s⁻¹],"Storage stability, SEC 4 weeks at 25° C. [D %] [2] [D %]","Storage stability, SEC 4 weeks at 40° C. [D %] [2] [D %]",IC50 (Classical Pathway (CP)) [nM],Kd [3] [nM],kd recombinant C3 [3] [s⁻¹],ka recombinant C3 [3] [M⁻¹ s⁻¹]
B1,3.9,5.4,0.14,4.2e-05,300000,0.135,4.5e-05,330000,0.267,6.3e-05,240000,0.06,0.37,74,0.148,4.9e-05,330000
B2,3.9,4.5,< 0.04,<1.1e-05,290000,0.021,7e-06,330000,0.07,1.5e-05,210000,0.11,1.59,69,0.035,1e-05,300000
